Measurements taken from the DeepSol protein solubility set.

Experiment: soluble on expression in E. coli; label from the status in PepcDB or PDB records
In the case of “MVNKDVKQTTAFGAPVWDDNNVITAGPRGPVLLQSTWFLEKLAAFDRERIPERVVHAKGSGAYGTFTVTKDITKYTKAKIFSKVGKKTECFFRFSTVAGERGSADAVRDPRGFAMKYYTEEGNWDLVGNNTPVFFIRDAIKFPDFIHTQKRDPQTNLPNHDMVWDFWSNVPESLYQVTWVMSDRGIPKSFRHMDGFGSHTFSLINAKGERFWVKFHFHTMQGVKHLTNEEAAEIRKHDPDSNQRDLFDAIARGDYPKWKLSIQVMPEEDAKKYRFHPFDVTKIWYTQDYPLMEVGIVELNKNPENYFAEVEQAAFTPANVVPGIGYSPDRMLQGRLFSYGDTHRYRLGVNYPQIPVNKPRCPFHSSSRDGYMQNGYYGSLQNYTPSSLPGYKEDKSARDPKFNLAHIEKEFEVWNWDYRADDSDYYTQPGDYYRSLPADEKERLHDTIGESLAHVTHKEIVDKQLEHFKKADPKYAEGVKKALEKHQKMMKDMHGKDMHHTKKKK”, the “soluble on expression in E. coli” value was “soluble”. In the case of “MVNKKRQVRFEFFQVNGKAQEGEKIVKGLFDLYPLADRINSISNYTDRDVILFGEKVRMDRFFEVSSSPELYAMHFTRLRNDKPAYVELNNEVLKEIPLNPGEYIAEDISCLYDRELSVLMVQRNIHSLSPSGIEDYFTEMSDDLVEIELLPVVNKEIISKALANEKFRKLELRAGSMNTTSDRSGLRKVLGPFMELFEKFEGTNFVIEISSGRSKKDLSEDQMKEVITAIEQDKSLFSSAIVSAKKSKEVPVEKYDLINGKLYVYRSFDLPDGAFLKSDSVIDNIKNYYFHPNEGGYRKQIIDAVK”, the “soluble on expression in E. coli” value was “not soluble”. With “MVNLDAEIYEHLNKQIKINELRYLSSGDDSDTFLCNEQYVVKVPKRDSVRISQKREFELYRFLENCKLSYQIPAVVYQSDRFNIMKYIKGERITYEQYHKLSEKEKDALAYDEATFLKELHSIEIDCSVSLFSDALVNKKDKFLQDKKLLISILEKEQLLTDEMLEHIETIYENILNNAVLFKYTPCLVHNDFSANNMIFRNNRLFGVIDFGDFNVGDPDNDFLCLLDCSTDDFGKEFGRKVLKYYQHKAPEVAERKAELNDVYWSIDQIIYGYERKDREMLIKGVSELLQTQAEMFIF” the “soluble on expression in E. coli” value was “soluble”. For “MVNPFIKEAKEKMKRTLEKIEDELRKMRTGKPSPAILEEIKVDYYGVPTPVNQLATISISEERTLVIKPWDKSVLSLIEKAINASDLGLNPINDGNVIRLVFPSPTTEQREKWVKKAKEIVEEGKIAIRNIRREILKKIKEDQKEGLIPEDDAKRLENEIQKLTDEFIEKLDEVFEIKKEEIMEF”, the “soluble on expression in E. coli” value was “soluble”. For “MVNQEKTLDVGFTHADFAALLDRYDYHFNPGDIVAGTVFSIEPKGALIDIGAKTAAYIPIQEMSINRIESPEEVLQPNETREFFILADENEEGQLTLSIRRIEYMRAWERVRQLQAEDATVRSQVFATNRGGALVRIEGLRGFIPGSHISTRVNKEELVGEELPLKFLEVDEERNRLVLSHRRALVERKMNKLEVGEVVVGTVRGIKPYGAFIDIGGVSGLLHISEISHDHIDTPHSVFNVNDQVKVMIIDLDAERGRISLSTKQLEPEPGDMVKNPQLVYEKAEEMAERYRQQLLQQQQQAAGETPEEGMEDIPEATEDDSPAPILQEALEHHHHHH”, the “soluble on expression in E. coli” value was “not soluble”. With “MVNVLSNLSNLSNILGKSNKGVGIELAPERMNIVHLCKQRQGLKIESLTTIPVPEGIVVDGQINDPPRMAEIIQQGMAESKIKASRVATCIPGRDAIVRVIPVPAELDNKELREMVLNHEAALYLPYPREEADVDYQKLGYFVDEDGIEKVQVLLVATRKEITDTYINTFAEAGLKVDVLEINSFALIRTIRDQLRLFGPQEAAVLVDIEFDSTEIAIIINGVPQFSRTVPIGTYQLQAALSRAMNLPTSRDMDMLMGMTIPTNSMDVGRTGTTGVNPGMGPMLKILGELSDELRRSIDFYINQSEGLEVAQILLAGTGGGLQQLDEFFTQRLGFPTTQIDPIRDLSLQVEAEKYPPVQRPGLGIILGLAMREG” the “soluble on expression in E. coli” value was “not soluble”. With “MVQHLSAQEIIQYISDAKKSTPLKVYVNGHFENVTFPESFKVFGSEHSKVIFCEANEWKQFYQQNHSLITELEIEMDRRNSAIPLKDL” the “soluble on expression in E. coli” value was “not soluble”. With “MVQWSPFVMSFKKKYPWIQLAGHAGSFKAAANGRILKKHCESEQRCLDRLMADVLRPFVPAYHGDVVKDGERYNQMDDLLADFDSPCVMDCKMGVRTYLEEELTKARKKPSLRKDMYQKMVEVDPEAPTEEEKAQRAVTKPRYMQWRETISSTATLGFRIEGIKKEDGSVNRDFKKTKTREQVTEAFREFTKGNQNILIAYRDRLKAIRATLEISPFFKCHEVIGSSLLFIHDKKEQAKVWMIDFGKTTPLPEGQTLQHDVPWQEGNREDGYLSGLDNLIDILTEMSQG” the “soluble on expression in E. coli” value was “soluble”. For “MVRANGAVSLRELARVVQTSEVTVRRDVRALEAEGLLDRRHGGAVLPGGFTRESGFPQKSHLATAEKTAIADLAAGLVEEGEAIVVGAGTTTQELARRLARVPGLTVVTNSLLVAQALAHANRVEVVMTGGTLRGSNYALVGSGAEQSLQGLRVSKAFLSGSGLTAERGLSTSNMLSASVDRALVQAAAEVVVLADHSKLGTDTMFQTVPTDVITRLVTDESPGHDDRAATELQALADQGVQIAVAGASGGGTANGTGASGAPGGDSVGRQQRRDVPLPGPRRQVPGAAGAGLRSATALGEQGGGAERARVADMRRRLEHHHHHH”, the “soluble on expression in E. coli” value was “not soluble”. In the case of “MVREAKNLRARTKKISLHICRKHAPQSEDFRCVFLRQQVIDRDIEAMAKPYDFYIVWKLSYNHVFTIHPRHTILELPPVYPDTALVPFFIMRFSFFDHMISCEYIFHRKLFVCLHRKNKQKQKSNM”, the “soluble on expression in E. coli” value was “not soluble”. With “MVRIYTLTLAPSLDSATITPQIYPEGKLRCTAPVFEPGGGGINVARAIAHLGGSATAIFPAGGATGEHLVSLLADENVPVATVEAKDWTRQNLHVHVEASGEQYRFVMPGAALNEDEFRQLEEQVLEIESGAILVISGSLPPGVKLEKLTQLISAAQKQGIRCIVDSSGEALSAALAIGNIELVKPNQKELSALVNRELTQPDDVRKAAQEIVNSGKAKRVVVSLGPQGALGVDSENCIQVVPPPVKSQSTVGAGDSMVGAMTLKLAENASLEEMVRFGVAAGSAATLNQGTRLCSHDDTQKIYAYLSR” the “soluble on expression in E. coli” value was “soluble”. With “MVRKALWKECLRIGGKVPLLNGEKLREIFRSGRGTGRFAKALGIEYGVDTSFNMLKVAKERGIKVALAKGENLPFKSETFDSVFLVVTICFVENPKQVLKEAHRVLKRDGKLYLGLILKESKWAKFYEEKAKNGHPFYKHARFYSFFELKEMVKDIFSFEEMKSTLLEEPQDSEPVKNKEIKPGFYENSGFTCIRLSKKLLEHHHHHH” the “soluble on expression in E. coli” value was “not soluble”. With “MVRLTTELFAERPQFVNSVNMREINLRGQKIPVIENMGVTRDQFDVIDLTDNDIRKLDNFPTFSRLNTLYLHNNRINYIAPDIATKLPNLKTLALTNNNICELGDIEPLAECKKLEYVTFIGNPITHKDNYRMYMIYKLPTVRVIDFNRVRLTEREAAKKMFKGKSGKKARDAIQKSVHTEDPSEIEPNENSSGGGARLTDEDREKIKEAIKNAKSLSEVNYLQSILASGKVPEKGWNRQMDQNGADGEAMES” the “soluble on expression in E. coli” value was “not soluble”. With “MVRVCACLIVKNEAAHLARCLGSVQPWVDDIVVVDTGSTDETPAIARQFTERLFTFPWQDDFAAARNYSLEQATGDWILVIDADEVLVTLQEPPVPLGQQLAGSPFTAYQLLRREIGTGEQFSDFAIVRLFRNLPTLRYQGRFHEQLVSTAAAPLTIGTLETLRIDHYGYQPAQIQAKMRDRNIPILERIRASEGLPLHLLFALADMYQAVNNPVEAENCYQELFDRLLPHLLSGQLPENAPGALPEILNQLGRRLLATGDHDTLQLLCQQGLAWFPTYPPLNDLAGRWLMTLGFPLGATAYFEYCLELGRTNGYSKQMIFPLGYVREIAAEQLGRAYEALGDRERAAAAFAQAAALRQGKAHPQLEHHHHHH” the “soluble on expression in E. coli” value was “soluble”. With “MVRVPLTAEELERGQRLGELLRSARGDMSMVTVAFDAGISVETLRKIETGRIATPAFFTIAAVARVLDLSLDDVAAVVTFGPVSTS” the “soluble on expression in E. coli” value was “soluble”. In the case of “MVSDEDELNLLVIVVDANPIWWGKQALKESQFTLSKCIDAVMVLGNSHLFMNRSNKLAVIASHIQESRFLYPGKNGRLGDFFGDPGNPPEFNPSGSKDGKYELLTSANEVIVEEIKDLMTKSDIKGQHTETLLAGSLAKALCYIHRMNKEVKDNQEMKSRILVIKAAEDSALQYMNFMNVIFAAQKQNILIDACVLDSDSGLLQQACDITGGLYLKVPQMPSLLQYLLWVFLPDQDQRSQLILPPPVHVDYRAACFCHRNLIEIGYVCSVCLSIFCNFSPICTTCETAFKISLPPVLKAKKKKLKVSA”, the “soluble on expression in E. coli” value was “not soluble”. With “MVSFTKDQIADIIRKVGDGTSPEALESAVRNVLAKLQSEGLSAPASQGGKLDASSYPLGIKRKDLVKSATGLGLDDITIEKVVSGEIQFDDIKTRPETLAYQNEIAKSVNRPNLANNLARAGEMTRIPDARLLEMYNFLRPYRAAKQEMISMAEELEQKYQAPACAKLVREAADVYEKNNRLKGDR” the “soluble on expression in E. coli” value was “not soluble”. For “MVSKELVVCHLYGNLLNTYGDNGNLLMLKYLTEKMGVTFRSEIISIYEPFDPEKYDLVFVGGGQDFEQLIISEDIQNKKEALTSYIENDGVLLAICGGYQLLGHYYVGAQGEKIKGIGALDHYTLSQDNNRFIGDIEIYNEEFDETYYGFENHNGMTFLGEGERPLGTVKQGKGNNGQDNGEGVVYKNVFGSYFHGPILARNKNLGIRLIRTALEKKYGEPIAIPETLYK”, the “soluble on expression in E. coli” value was “not soluble”. For “MVSKKKALEMIDVIANMFPDAECELKHDNPFELTIAVLLSAQCTDVLVNRVTTELFKKYKTPEDYLAVSDEELMNDIRSIGLYRNKAKNIKKLCQSLIDQFNGEIPQTHKELESLAGVGRKTANVVMSVAFDEPSLAVDTHVERVSKRLGINRWKDNVRQVEDRLCSVIPRDRWNRSHHQLIFFGRYHCLARKPKCDICPLLEDCREGQKRYKASLKEA”, the “soluble on expression in E. coli” value was “not soluble”. With “MVSPILANIALNGIESIHRSKAKGQIIEPSVRYADDMVIILKPKDNAIEILERISEFLRKRGMQVSQKKTKITAATDGFDFLGWHFKVQKNGKFKSTPSVDNFKAFRKKVKHIVNNSNYGSIVKAQKLSPIVRGWRNYHKFCKMDGSKHSLWFLNHRTYTVFTKESKHTRQSSEKLIKKAFPLVPNSENKHVMVQGIKSPYDGNLTCWSKRNSKLYDGHTSKALTKQNHKCASCGLKFIGEERVHLHHRDGNHDNWKPNNLEALHESCHDYRHMSKTERLEHHHHHH” the “soluble on expression in E. coli” value was “not soluble”. With “MVSSLFINPFSEDAREIVRKYGSLDTIDDTRDELLEIGRRTRGQNLADNSLLPASIAELAVKRLEWYLRRQRKDFNHRDYAYLMNPEIEEYDVLAFYILAQAAGAGFMKASREARLVVESAGAMVEDRLNVFGGEREEIMAEVLYELGSEGLRWTELADLLGSGKLKLTDLILKEGRVIIDRDEFITSFQDSIRDRSPDRLYDILVGLEVRETMISRMIMQRTEEYIGMVREMSSTVEVHPLILETAERIRETVEEIMSFTGGPVKSARPGKLVQEAFPPCIRGTLDGVRSGNRNDAIVLLLTSFISYARLYPSVFRDRTPMKVSDLDPDLRITLGEILPVIYDAADRCEPPLFEDDPQEKLNITAKLGFGVHDMPELENEGESKWYTPMSCEKIKIHLPDLCRPDKLCSSISNPLTYYNRKRWKLRSSGEKEELEHHHHHH” the “soluble on expression in E. coli” value was “not soluble”. In the case of “MVSSQPKYDLIREVGRGSYGLVYEALVRRTGQRVAVKKIRCQAPENVELALREFWALSSIQSQHPNVIHLEECVLQRDGMVQRMLHGSSSVLYLP”, the “soluble on expression in E. coli” value was “not soluble”. With “MVSTYDEIEIEDMTFEPENQMFTYPCPCGDRFQIYLDDMFEGEKVAVCPSCSLMIDVVFDKEDLAEYYEEAGIHPPEPIAAAA” the “soluble on expression in E. coli” value was “soluble”.
